Experimental data published in a protein production outcome set (Wang et al. 2014).

Assay: label from the status in PepcDB records

| Sequence | protein production |
| --- | --- |
| PRPAVSVAPTTEAESFVQDRIEEDGLHVVHFWAPWCANSRNELDNGWAGLVADNPDVTFTFVTVWNDDESGAAMLNDYNLPDRVVEVTQPDLGPSDTEANRRYSFLGLPVTWIPSTWIFHSNGELAFAMNYGEMEMQTVQRLLDATSADW | failed |
| MKVINVDVAIIGTGTAGMGAYRAAKKHTDKVVLIEGGAYGTTCARVGCMPSKLLIAAADASYHASQTDLFGIQVDRISVNGKAVMKRIQTERDRFVGFVVESVESFDEQDKIRGFAKFLDEHTLQVDDHSQVIAKRIVIATGSRPNYPEFLAAAGSRLLTNDNLFELNDLPKSVAVFGPGVIGLELGQALSRLGVIVKVFGRSGSVANLQDEEMKRYAEKTFNEEFYFDAKARVISTIEKEDAVEVIYFDKSGQKTTESFQYVLAATGRKANVDKLGLENTSIELDKKNSPLFDELTLQTSVDHIFVAGDANNTLTLLHEAADDGKVAGTNAGAYPVIAQGQRRAPLSVVFTEPQVASVGLSLRQIEDLYADQDAANYVVGQVSFEGQGRSRVMGKNKGLLNVYADRTSGEFLGAEMFGPAAEHIGHLLAWARQQQMTVQAMLTMPFYHPVIEEGLRTALRDAQQKLAIEKHDMNEFIMTHDNAMKLVI | not failed |
| MNEFTAVKELSEKLLEDYKTESSFFFASPTRTILAEGEFTTVKHHEIESFPELVQAVLRNAKQAGNPNPIVVGALPFDRRKEVQLIVPEYSRISERLQLDPTNHLEINRNLTFEMTPVPDHEVYMKGVKQGIEKIKDGDLKKIVLSRSLDVKSSGKIDKQKLLRELAEHNKHGYTFAVNLPKDENENSKTLIGASPELLVSRHGMQVISNPLAGSRPRSDDPVEDKRRAEELLSSPKDLHEHAVVVEAVAAALRPYCHTLYVPEKPSVIHSEAMWHLSTEVKGELKNPNTSSLELAIALHPTPAVCGTPMEEAREAIQKIEPFDREFFTGMLGWSDLNGDGEWIVTIRCAEVQENTLRLYAGAGVVAESKPEDELAETSAKFQTMLKALGLNDSSLNEK | not failed |
| MSWSKVKYFFFDTPEEKEAAQYGYEKEQTDMKKQQDPPEQQDVTFPKAQPKQNVVSIETAKQSSKVVLLEPRTYSEAQGIADHLKGRRAVVINLQRMSTDQAVRIVDFLSGTVYAIGGDIQKIGPKTFMCTPENVDIVGAISELFGEEEETNIKRWLEHHHHHH | not failed |
| MGIMPRKVLAIKNFKERFDLLPKLKGVIAEKQPDILVVVGNILKNEALEKEYERAHLARREPNRKVIHENEHYIIETLDKFFREIGELGVKTFVVPGKNDAPLKIFLRAAYEAETAYPNIRVLHEGFAGWRGEFEVIGFGGLLTEHEFEEDFVLKYPRWYVEYILKFVNELKPRRLVTIFYTPPIGEFVDRTPEDPKHHGSAVVNTIIKSLNPEVAIVGHVGKGHELVGNTIVVNPGEFEEGRYAFLDLTQHKIKLEQFS | not failed |
| MGKVIGIDLGTTNSCASVLEGGKPIVITNTEGGRTTPSIVGFTKGSQRLVGQLAKRQSVTNAENTVYSIKRFIGRRWDDTVEERSRVPYNCVKGRDDTVSVSIRGQSYTPQEISAMILQKLKADSEAFLGEPVTQAVITVPAYFTDAQRQATKDAGTIAGLEVLRIINEPTAAALAYGLDKQETEELILVFDLGGGTFDVSLLQLGNGVFEVLSTSGNNHLGGDDFDNCVVQWMAESFKQKENIDLSTDKMAIQRLREAAEKAKIELSSMLNTTINLPFITADESGPKHLEMELARSQFEELTKQLLEDTRVPLTQALDDGEIRASDVHRVILVGGSTRIPAIQRVIQEFFPDSQLERSVNPDEAVALGAAIQAGVIGGEVEDVLLLDVTPLSLGLETLGEVTTKIIERNTTIPTSRSEVFSTAVDGQTSVEIHVIQGERAMARDNKSLGKFLLAGIPPAPRGMPQIEVSFEIDVNGILKVSAQDQGTGKEQSIVISHTGGLSGGEIEKMRQEAQQYAAQDQLRLRMMELQNQADSLFHTYETTLQESGELVREELKSSGKQKKDQLAIALRTPNTPVEKLQTLVEEFRQIILLIGTEVYQQGKGAASNEFANFVQGTSSGTSQMIESLETNLNPIQASSGITMTPGTMINGTVNPGGMDYVETAPVYGLDDGEEFDFDADETVYSDYEAID | failed |
| MVELEKEKIVWIAIILLIIFLVWETLKDLIAPIVFGMAASYIAYPFHIKLSKKVGKRNSVLILSGILSIFSLIFFVGVTLWITDTLKNLYNYLDAFFSWLSTLNVPGFLSSLFDALATSFPEKLRSILLQYTLSLPKLALQLIVFLAVFYATLLNADFLAKEIYELLPLTNRELGEKMIEKVKDTVDAILKTWLFFSVVKGIFLALGFYLFKISNVAGSIAAGVLCIVLELLPVVGGWIMWLAGAIILLRRSMLLAIIFAIYGIITISPIPDYFLKPKFAKERAKVSSVVALVGIFGGWIAFGAVGIILGPIAIGLLLALIDAWREIGTKQPSKAHRSQDA | failed |
